The source of these data is the emibetuzumab library of Makowski et al. (2022).

B1: VH:VL chains; a variant is named by its letters at X, in order (parent)
chain 1: QVQLVQSGAEVKKPGASVKVSCKASGYTFTDYXMHWVRQAPGQGLEWMGXVNPNXXXTTYNQKFEGRVTMTTDTSTSTAYMELRSLRSDDTAVYYCARXNXLDXWGQGTTVTVSS
chain 2: DIQMTQSPSSLSASVGDRVTITCSVSSSVSSIYLHWYQQKPGKAPKLLIYSTSNLASGVPSRFSGSGSGTDFTLTISSLQPEDFATYYCQVYSGYPLTFGGGTKVEIK

Variants of B1 are the subject of this data set. As to the kind of experiment: yeast display scFab, FACS + sequencing. The procedure, abridged:
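Heavy-chain CDR mutant scFab yeast surface library, FACS-sorted after labelling with biotinylated ovalbumin (260 μg/mL in PBSB, 3 h, room temperature) or soluble membrane proteins (130 μg/mL, 20 min on ice), plus anti-Myc. Gates collected the top 25% and bottom 10% of binders, and samples from two replicates were deep sequenced. Non-specific binding call: a sequence was positive if found in ≥3 of 4 positive samples (membrane protein and ovalbumin pooled) and no negatives, and negative by the converse rule.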
As for YRAGGYAA, the non-specific binding call is “binds”.

In the case of VTEGGDAA, the non-specific binding call was “no binding”.

In the case of YRTGAASD, the non-specific binding call is “binds”.

In the case of FRGRGSGV, the non-specific binding call is listed as “binds”.

On to DAAKNDAV, for which the non-specific binding call is “no binding”.

For VEGTNDVV, the non-specific binding call is given as “no binding”.

On to YKGKGYVD, for which the non-specific binding call was “binds”.

Turning to DEGGTDVF, the non-specific binding call is recorded as “no binding”.

For the variant YKGKSAWV, the non-specific binding call is “binds”.

As to YRGKGFVV, the non-specific binding call was “binds”.

With YATGDDGV, the non-specific binding call is recorded as “no binding”.

In the case of DGGKNDWV, the non-specific binding call is listed as “no binding”.

FTTRDDSD: the non-specific binding call is listed as “no binding”.

With YKRGSSVV, the non-specific binding call is reported as “binds”.

In the case of SEARSDVY, the non-specific binding call was “no binding”.

Take AETGASLS: the non-specific binding call was “no binding”.

On to YRRGGSSA, for which the non-specific binding call is listed as “binds”.

Regarding SEEASDGA, the non-specific binding call was “no binding”.

Turning to YKKRGAGV, the non-specific binding call was “binds”.

Regarding YTRGADGS, the non-specific binding call is reported as “no binding”.

Regarding FRRGSSGS, the non-specific binding call is recorded as “binds”.

Turning to YKGRGALY, the non-specific binding call is “binds”.

Regarding SKTKSSSA, the non-specific binding call was “no binding”.

As for YTATGFAV, the non-specific binding call was “binds”.

With VAAKNDGA, the non-specific binding call was “no binding”.

In the case of STAESDGA, the non-specific binding call is “no binding”.

Turning to DAGEGFVA, the non-specific binding call is recorded as “no binding”.

For YRKRGVGV, the non-specific binding call is listed as “binds”.

Regarding VRGGGDGY, the non-specific binding call is listed as “no binding”.

In the case of DRGRDFGV, the non-specific binding call was “no binding”.

Take VRRGSSAF: the non-specific binding call was “binds”.

Turning to YRKGSAGD, the non-specific binding call is “binds”.

Regarding YRARSAAV, the non-specific binding call is reported as “binds”.

In the case of ATTKSAGD, the non-specific binding call was “no binding”.

On to DRAGDAGY, for which the non-specific binding call is given as “no binding”.

On to DRAGDAGA, for which the non-specific binding call was “no binding”.

Turning to VRRGDFWA, the non-specific binding call is listed as “no binding”.

Regarding VTAGDSAD, the non-specific binding call is reported as “no binding”.

Turning to STRGADAV, the non-specific binding call was “no binding”.

Regarding YAGKSAGD, the non-specific binding call is reported as “no binding”.

For the variant YKTRSAWS chain 1 M48I, the non-specific binding call is on record as “binds”.

As to FAGRGALD, the non-specific binding call is reported as “binds”.

Consider YRAGSSGV, for which the non-specific binding call is given as “binds”.

In the case of YKGRGYSY, the non-specific binding call was “binds”.

Regarding DAKTDDGV, the non-specific binding call is “no binding”.

SEARSAWS: the non-specific binding call is listed as “no binding”.

On to VTKESAAV, for which the non-specific binding call is listed as “no binding”.

Consider YRKGAAVV, for which the non-specific binding call was “binds”.

In the case of VRAGDSSV, the non-specific binding call is listed as “no binding”.

Take DREEGSGD: the non-specific binding call is listed as “no binding”.

With VAEATDLY, the non-specific binding call is “no binding”.

As for YRGGGAAF, the non-specific binding call is on record as “binds”.

For VTTRAASV, the non-specific binding call is listed as “no binding”.

Take YKGKGSGF: the non-specific binding call is reported as “binds”.

Take YRGKGYAA: the non-specific binding call is “binds”.

Turning to VTAGDDGV, the non-specific binding call is on record as “no binding”.

As for SRGRGYSV, the non-specific binding call is given as “binds”.

In the case of FRGEGALV, the non-specific binding call is on record as “binds”.

As for FKGKGSWD, the non-specific binding call is reported as “binds”.

With YRGKDALA, the non-specific binding call is “binds”.

Turning to SKTKSDWA, the non-specific binding call is recorded as “no binding”.

Take DTGTGDSA: the non-specific binding call was “no binding”.

With YEEGTDWY, the non-specific binding call is “no binding”.

For the variant FRRGDAGD, the non-specific binding call is “binds”.

In the case of DRGRGSAD, the non-specific binding call is recorded as “binds”.

For YRRRGASA, the non-specific binding call was “binds”.

For YRRRGASS, the non-specific binding call is given as “binds”.

Consider AARADDSA, for which the non-specific binding call is “no binding”.

VTGTSDVA: the non-specific binding call was “no binding”.

On to YRRRGAVF, for which the non-specific binding call was “binds”.

SKGKGSAA: the non-specific binding call was “binds”.

As for YRKEAAWV, the non-specific binding call is given as “binds”.

YRGEGDAV: the non-specific binding call was “no binding”.

With SEARSALD, the non-specific binding call was “no binding”.

With FRKAAVAV, the non-specific binding call is reported as “binds”.

Take YTRGAAVA: the non-specific binding call is listed as “no binding”.

For YRAKGSWD, the non-specific binding call is on record as “binds”.

For YRARSASA, the non-specific binding call is “binds”.

On to VETGNSGA, for which the non-specific binding call was “no binding”.

For DGARNFGV, the non-specific binding call was “no binding”.

In the case of FRRGGAVD, the non-specific binding call is given as “binds”.

With VETGNSSA, the non-specific binding call was “no binding”.

For the variant YRARGSWS, the non-specific binding call was “binds”.

As for YRGGAAWY, the non-specific binding call is listed as “binds”.

YRRGGAVS: the non-specific binding call is “binds”.

Take YGARNAAV: the non-specific binding call is “binds”.

Turning to VRRETVSD, the non-specific binding call was “binds”.

Regarding DAGGASSA, the non-specific binding call is “no binding”.

As to YAGRADVV, the non-specific binding call is “no binding”.

As for VTEEGSSV, the non-specific binding call is recorded as “no binding”.

YKEEDSLD: the non-specific binding call is “no binding”.

As to YREGGFVA, the non-specific binding call was “binds”.

For the variant VETGGAVA, the non-specific binding call was “no binding”.

For the variant FAAGSYAV, the non-specific binding call is reported as “binds”.

FRGRDFVA: the non-specific binding call is on record as “binds”.

Turning to VEGGGFAY, the non-specific binding call is “no binding”.

Consider SKTKSDGS, for which the non-specific binding call is listed as “no binding”.

As to FERTSALF, the non-specific binding call was “binds”.

For YAKEGDGV, the non-specific binding call is given as “no binding”.

For VEAGDSLD, the non-specific binding call is given as “no binding”.

With VKGRGSVF, the non-specific binding call is listed as “no binding”.

With YRGRGDSV, the non-specific binding call is reported as “no binding”.

With DTERDDAV, the non-specific binding call is reported as “no binding”.

Consider DRGRDAWS, for which the non-specific binding call was “no binding”.

For YRGKGAGY, the non-specific binding call was “binds”.

For YTKRGDWD, the non-specific binding call is given as “binds”.

As to YEGAASWF, the non-specific binding call is “no binding”.

YAKRGSWA: the non-specific binding call is “binds”.

Take DTKRTAVA: the non-specific binding call is “binds”.

On to AAKRGSWV, for which the non-specific binding call is on record as “no binding”.

As for YRTAGSGV, the non-specific binding call is given as “binds”.

FTARSAGF: the non-specific binding call is recorded as “binds”.

For VKKESDSY, the non-specific binding call is “no binding”.

In the case of VTAGDAGD, the non-specific binding call was “no binding”.

As for DAERDSGV, the non-specific binding call is recorded as “no binding”.

Regarding FAKRGAWS, the non-specific binding call is given as “binds”.

For the variant VKAGDSSS, the non-specific binding call is “no binding”.
